Data reported in US20200332006A1 (ULTRAHUMAN NINE, published 2020).

T1: human BTN2A1, expressed on HEK293 cells (human, UniProt Q7KYR7 29-527)
T1 construct: also called NM_007049
T1 sequence: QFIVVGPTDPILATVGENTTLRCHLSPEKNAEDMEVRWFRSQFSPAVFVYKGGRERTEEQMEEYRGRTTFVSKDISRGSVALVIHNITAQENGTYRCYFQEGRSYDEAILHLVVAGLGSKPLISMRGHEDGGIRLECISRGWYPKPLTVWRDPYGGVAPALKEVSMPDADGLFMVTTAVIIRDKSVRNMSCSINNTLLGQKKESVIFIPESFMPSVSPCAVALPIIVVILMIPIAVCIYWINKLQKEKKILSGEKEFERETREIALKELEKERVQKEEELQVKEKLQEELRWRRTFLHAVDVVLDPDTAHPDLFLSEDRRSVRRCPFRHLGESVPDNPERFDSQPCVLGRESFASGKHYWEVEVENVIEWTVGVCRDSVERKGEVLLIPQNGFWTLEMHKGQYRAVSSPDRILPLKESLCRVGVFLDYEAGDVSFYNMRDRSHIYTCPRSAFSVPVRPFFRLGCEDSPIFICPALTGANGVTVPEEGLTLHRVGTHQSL

T2: human LSAMP, expressed on HEK293 cells (human, UniProt Q13449 29-315)
T2 construct: also called BC033803
T2 sequence: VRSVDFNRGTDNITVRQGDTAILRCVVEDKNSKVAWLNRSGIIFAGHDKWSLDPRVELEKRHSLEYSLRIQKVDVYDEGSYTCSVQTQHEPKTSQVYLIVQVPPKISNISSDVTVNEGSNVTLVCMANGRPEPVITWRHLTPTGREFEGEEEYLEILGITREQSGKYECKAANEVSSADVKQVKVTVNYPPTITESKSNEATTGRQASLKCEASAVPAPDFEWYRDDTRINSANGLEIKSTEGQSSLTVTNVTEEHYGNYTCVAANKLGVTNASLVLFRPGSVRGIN

T3: human CD20, expressed on HEK293 cells (human, UniProt P11836 1-297)
T3 construct: whole, on cells
T3 sequence (looked up): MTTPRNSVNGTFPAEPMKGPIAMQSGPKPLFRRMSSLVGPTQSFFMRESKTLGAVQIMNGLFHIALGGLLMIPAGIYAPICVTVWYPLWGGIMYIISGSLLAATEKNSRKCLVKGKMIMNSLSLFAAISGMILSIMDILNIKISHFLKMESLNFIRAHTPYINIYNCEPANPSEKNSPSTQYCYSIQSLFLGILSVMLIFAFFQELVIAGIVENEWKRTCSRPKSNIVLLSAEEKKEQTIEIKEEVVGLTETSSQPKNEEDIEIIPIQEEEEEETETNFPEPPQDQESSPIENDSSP

T4: cynomolgus monkey PD1 human Fc tagged recombinant protein (cynomolgus monkey, UniProt Q15116 25-170 (human entry), limits assumed)
T4 construct: also called cyno PD1-Fc; cyPD1
T4 chain: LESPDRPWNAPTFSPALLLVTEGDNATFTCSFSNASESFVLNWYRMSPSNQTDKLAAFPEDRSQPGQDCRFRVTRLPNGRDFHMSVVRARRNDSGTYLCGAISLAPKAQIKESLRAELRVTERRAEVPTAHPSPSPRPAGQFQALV


Tests used:
[1] = biological target: T1, human BTN2A1, expressed on HEK293 cells; test: flow cytometry on transfected HEK293 cells, no primary antibody
[2] = biological target: T2, human LSAMP, expressed on HEK293 cells; test: as above
[3] = biological target: T3, human CD20, expressed on HEK293 cells; test: as above
[4] = biological target: T1, human BTN2A1, expressed on HEK293 cells; test: flow cytometry on live transfected HEK293 cells
Description: (§1) FIG. 11. […] Analyses of binding specificity were performed on HEK293 cells transiently transfected with plasmids encoding either human PD1, human BTN2A1, human LSAMP, human CD20 or ZS green marker only. Each antibody was used in staining at […] concentration and histograms are indicated per antibody in this figure.
(§2) Human cell membrane receptor proteome arrays were performed at Retrogenix Ltd. Primary screens: 2 μg/ml of each antibody was screened for binding against fixed HEK293 cells/slides expressing 5528 human plasma membrane and tethered secreted proteins individually. […] Antibody binding was detected using AF647 fluorescent secondary anti-human IgG1 antibody. Primary hits (duplicate spots) were identified by analysing fluorescence (AF647 and ZsGreen1) on ImageQuant. Confirmation/specificity screens: Expression vectors encoding ZsGreen1 only, or ZsGreen1 and CD20, PD1, BTN2A1, or LSAMP were transfected into human HEK293 cells. […] Cells were washed, and incubated with the same AF647 anti-human IgG Fc detection antibody as used in the cell microarray screens. Cells were again washed, and analysed by flow cytometry using an Accuri flow cytometer (BD). A 7AAD live/dead dye was used to exclude dead cells, and ZsGreen1-positive cells (i.e. transfected cells) were selected for analyses.

[5] = biological target: T1, human BTN2A1, expressed on HEK293 cells; test: flow cytometry on transfected HEK293 cells, 2 ug/ml IgG
Description: as §1, §2

[6] = biological target: T2, human LSAMP, expressed on HEK293 cells; test: as above
Description: as §1, §2

[7] = biological target: T3, human CD20, expressed on HEK293 cells; test: as above
Description: as §1, §2

[8] = biological target: T5, biotinylated human PD1-His/AviTag (human, UniProt Q15116 25-170, biotinylated (AviTag)); test: AlphaScreen epitope competition; competitor mu317 IgG on biotinylated monomeric human PD1
T5 construct: also called biotinylated monomeric human PD1
T5 sequence (Q15116 25-170 limits assumed): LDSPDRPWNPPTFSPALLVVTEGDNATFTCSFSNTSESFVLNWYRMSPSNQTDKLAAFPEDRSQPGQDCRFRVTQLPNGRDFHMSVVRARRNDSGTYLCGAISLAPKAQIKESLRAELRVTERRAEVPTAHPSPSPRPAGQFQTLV
Description: (§3) The AlphaScreen assay (Perkin Elmer) was performed in a 25 μl final volume in 384-well white microtiter plates (Greiner). The reaction buffer contained 1×PBS pH 7.3 (Oxoid, Cat. nr. BR0014G) and 0.05% (v/v) Tween® 20 (Sigma, Cat. nr. P9416). Purified IgG samples were titrated in three fold serial dilutions starting at 500 nM final concentration and incubated with biotinylated human PD1-His/AviTag at 0.6 nM final concentration for 20 minutes at room temperature. […] Followed by addition of the Streptavidin Donor beads at 20 μg/ml (final concentration) and incubation for 30 minutes at room temperature. The emission of light was measured in the EnVision multilabel plate reader (Perkin Elmer) and analysed using the EnVision manager software. Values were reported as Counts Per Second (CPS) and corrected for crosstalk.

[9] = biological target: T6, human PD1 human Fc tagged recombinant protein (human, UniProt Q15116 25-170); test: direct titration ELISA, IgG1null on coated PD1-Fc
T6 construct: also called human PD1-Fc; huPD1
T6 sequence (Q15116 25-170 limits assumed): as above
Description: (§4) Binding and cross-reactivity of the lead panel to the recombinant proteins was initially assessed by binding ELISA. The human PD1 human Fc tagged recombinant protein and the cynomolgus monkey PD1 human Fc tagged recombinant protein were coated to the surface of MaxiSorp™ flat-bottom 96 well plate at 1 μg/ml. The Fab samples were applied at 1:5 dilution in 1% Skimmed Milk/1×PBS; 1 h at RT; 100 μl/well. IgGs were titrated in two fold serial dilutions starting from 500 nM to 0.98 nM and allowed to bind to the coated antigens. The Fabs were detected using mouse anti-c-myc antibody followed by donkey anti-mouse IgG conjugated to horseradish peroxidase. The IgGs were detected using the mouse anti-human IgG conjugated to horseradish peroxidase. Binding signals were visualized with 3,3′,5,5′-Tetramethylbenzidine Substrate Solution (TMB) and the absorbance measured at 450 nm.

[10] = biological target: T4, cynomolgus monkey PD1 human Fc tagged …; test: direct titration ELISA, IgG1null on coated PD1-Fc
Description: as §4

[11] = biological target: T4, cynomolgus monkey PD1 human Fc tagged …; test: direct titration ELISA, IgG1null on coated PD1-Fc (reference antibody)
Description: as §4

[12] = biological target: T5, biotinylated human PD1-His/AviTag; test: AlphaScreen epitope competition; titrated IgG against mu317 IgG (parental IgG, 0.3 nM) on biotinylated monomeric human PD1
Description: as §3

Molecule | binding result [4] | fold fluorescence change versus mock (ZSgreen only) cells [5] [fold] | fold fluorescence change versus mock (ZSgreen only) cells [6] [fold] | fold fluorescence change versus mock (ZSgreen only) cells [7] [fold] | IC50 [8] [nM] | also measured
AF647 anti-human IgG Fc detection antibody alone | – | – | – | – | – | fold fluorescence change versus mock (ZSgreen only) cells [1]: 1.1 fold; fold fluorescence change versus mock (ZSgreen only) cells [2]: 1.5 fold; fold fluorescence change versus mock (ZSgreen only) cells [3]: 0.9 fold
Antibody MH8, IgG1null format (antibody, V domains shown, Tested as IgG1null (human IgG1 L234A, L235A, G237A) with human Ckappa; also called clone MH8) VH: EVQLVESGGGLVQPGGSLRLSCAASGFTFSSYGMSWVRQAPGKGLEWVANIWQDGSTKYVDSVKGRFTISRDNAKNSLYLQMNSLRAEDTAVYYCARAYGNYWYIDRWGQGTTVTVSS VL: DIVMTQSPDSLAVSLGERATINCKSSQSVTNDVAWYQQKPGQPPKLLINYAYHRFTGVPDRFSGSGYGTDFTLTISSLQAEDVAVYYCHQAYSTPYTFGQGTKLEIK | no binding (tested: 2 ug/ml) | 1.1 | 7.1 | 0.9 | 0.39 | –
Antibody 09C06, IgG1null format (antibody, V domains shown, Library-derived clone; Tested as IgG1null (human IgG1 L234A, L235A, G237A) with human Ckappa; also called clone 09C06) VH: EVQLVESGGGLVQPGGSLRLSCAASGFSFSSYGMHWVRQAPGKGLEWVANIWQDGSTNYVDSVKGRFTISRDNAKNSLYLQMNSLRAEDTAVYYCARAYGNYWYIDRWGQGTTVTVSS VL: DIVMTQSPDSLAVSLGERATINCKSSQSVSNDVAWYQQKPGQPPKLLINYASHRFTGVPDRFSGSGYGTDFTLTISSLQAEDVAVYYCHQAYSTPYTFGQGTKLEIK | – | – | – | – | – | binding result [9]: binds; binding result [10]: binds
Antibody MH12, IgG1null format (antibody, V domains shown, Tested as IgG1null (human IgG1 L234A, L235A, G237A) with human Ckappa; also called clone MH12) VH: EVQLVESGGGLVQPGGSLRLSCAASGFTFSSYGMSWVRQAPGKGLEWVANIWQDGSEKYVDSVKGRFTISRDNAKNSLYLQMNSLRAEDTAVYYCARAYGNYWYIDRWGQGTTVTVSS VL: DIVMTQSPDSLAVSLGERATINCKSSQSVTNDVAWYQQKPGQPPKLLINYAYHRFTGVPDRFSGSGYGTDFTLTISSLQAEDVAVYYCHQAYSTPYTFGQGTKLEIK | – | 1.3 | 4.1 | 1.1 | 0.624 | –
Antibody MH4, IgG1null format (antibody, V domains shown, Tested as IgG1null (human IgG1 L234A, L235A, G237A) with human Ckappa; also called clone MH4) VH: EVQLVESGGGLVQPGGSLRLSCAASGFSLSSYGMSWVRQAPGKGLEWVAVIWQDGSTNYVDSVKGRFTISRDNAKNSLYLQMNSLRAEDTAVYYCARAYGNYWYIDRWGQGTTVTVSS VL: DIVMTQSPDSLAVSLGERATINCKSSQSVTNDVAWYQQKPGQPPKLLINYAYHRFTGVPDRFSGSGYGTDFTLTISSLQAEDVAVYYCHQAYSTPYTFGQGTKLEIK | no binding (tested: 2 ug/ml) | 1.2 | 1.9 | 1.1 | 0.63 | –
Mu317 murine anti-PD1 v-domains, produced in human IgG1null format (antibody, V domains shown, Tested as IgG1null (human IgG1 with L234A, L235A, G237A) with human Ckappa; also called Mu317 IgG1; parental IgG) VH: QVQLKESGPGLVAPSKNLSITCTVSGFSLTSYGVHWIRQPPGKGLEWLGVIWAGGSTNYNSALMSRLSISKDNSRSQVFLRMNSLQTDDTAMYYCARAYGNYWYIDVWGAGTTVTVSS VL: DIVMTQTPKFLLVSAGDRVTITCKASQSVSNDVAWYQQKPGQSPKLLINYAFHRFTGVPDRFTGSGYGTDFIFTISTVQAEDLAVYFCHQAYSSPYTFGGGTKLEMK | – | – | – | – | – | binding result [11]: binds; IC50 [12]: 0.37 nM
